Assay: soluble on expression in E. coli; label from the status in PepcDB or PDB records

Sequence	soluble on expression in E. coli
MTVTLTCRFKLELSKDQKQQFLDIATAYTNAVNYVLEQNLKDKSTNVKKLHRLYYKTIREDFDLPAQMAINVNRDVSAMYKTLWAQFKELKRRKPDSKAVKKFWDKPPKRKSLIVKYTYNRTASFKKINGEWHASLSTLQGRIKWIPMKGWSKHFEYLKSCKIGDPILTYDKSSKTFFLLVPVTLEVQEHQPKEIVGVDVGERHIAAVASTKGTRYLIDLPEEFKQRKQHYQRLRSELMSKGTRSAKRKLARISRREKRFTENVLHIIAKKLTTSHPGARFVLEDLTQIRANRITYRGKDKEARRQSEQWPFASLQQKIEYKAKLYYGVQSEKVDPSYTSQTCPRCGHVSKENRPDHGERFVCQSCGYEEHADIVGAINIALRVLAKDQQVNLEKLLGAVVSRPDAPRLGLEHHHHHH	soluble
YKKGIKPDLESITLCREDYESSGGKEIFLSFEDTKNDLLIGYLRLRIPNNPFRKEITDKSALIRQVHVCGQQKELEGNSKELSWQHKGYGRLLIDEAEKIAKEEFEKDQMLINSGIGVREYYKKLRYKRVGPYMGKNLK	not soluble
AIANCCIGLGEKARGSHRASYPSLSALFTEASILGFGSFAVKAQWTEDCRKSTYPPSGPTVFPAVIRYRGAVPWYTINLDLPPYKRWHELMLDKAPVPGLLGNFPGPFEEEMKGIAAVTDIPLGEIISFNIFYELFTVCTSIVAEDKKGHLIHGRNMDFGVFLGWNINNDTWVITEQLKPLTVNLDFQRNNKTVFKASSFAGYVGMLTGFKPGLFSLTLNERFSINGGYLGILEWILGKKDAMWIGFLTRTVLENSTSYEEAKNLLTKTKILAPAYFILGGNQSGEGCVITRDRKESLDVYELDAKQGRWYVVQTNYDRWKHPFFLDDRRTPAKMCLNRTSQENISFETMYDVLSTKPVLNKLTVYTTLIDVTKGQFETYLRDCPDPCIGW	soluble
MEGLTPEMQREAEALRREWETNPRWKGVRRDYRPEDVVRLRPSVMVEYTLAKRGAEKLWKLLHERPYVHTFGAYTGAMAVEMVRAGLEAIYLSGWQVAADANLAWQTYPDQSLYPYNSVPQIVKRINNALMRADQVERIEGRVTRDWYVPIVADAEAGFGGALNVFELTKAMIEAGAAGIHYEDQLASEKKCGHLGGKVLVPTGQHIRTLQAARLAADVMGVPTVIIARTDAEAATLITSDIDERDKPFILPDERTPEGFYRFKNGIEAGIARALAYAPYADVIWMETSKPDLEEARKFAEAVKKEFPDKLLAYNLSPSFNWKKFLDDETIAKFNRELGEMGYKFQFITLAGWHALNYYIWELAKGYKERGMPAFVELQQKEFAAQKEGFTAVKHQREVGAGYFDEVVLALTQGQASTLALKGSTEEAQFNEPVH	soluble
MIRSIFIPPTSITATSRLFYGMRAYSTKLEKASLQKYLHDPVKVTVIPITDKESFIYYKHTDNLFNSQSRILKAEKWIVEKSAKLWRKLKKSPKSYNKKIVSMVQSLLNSTPWSENSLLTIPSESYILKRIKGEKDKTQEIRLTLKDYTVKAEQVDTQPLHVYYPPGISSPDECLRQMKKLYQEGLIYHKKWTLYCLLGLPLTIPLILIPLIPNVPGFYLSYRAYVNIKAYLGAKHLKSLLESSKQNLEFRELLGYTEVYKRGTSSRTQGNQKESKGAPELLLNKKTLPLILDFLEVHELESDLNKVILQESKSQEKNKI	not soluble
GPGSMSRTQTSSKSVPKNIAVYCRVRPPVPNEKGHTFQNISYDDSDSRAIAVARKSGTKALEKTYLFNRVFRPTATQKDVYETFAKGAVDAAFDGQHGVLFVYGQTGSGKTFTISNDEPNNEGVLQRSMRDIWNRIASDTANDYSCSVSYVQLYNEILTDLLDDAKGKVRIQMGSEGRGDVVMVSDSTGMAIEREVKDYKSTMACFQVGLARKEMASTSMNSTSSRSHTIFTLNIVKAKKVVAVTV	not soluble
MYRPKDHGWVEVIVGPMYSGKSEELIRRIRRAKIAKQKIQVFKPEIDNRYSKEDVVSHMGEKEQAVAIKNSREILKYFEEDTEVIAIDEVQFFDDEIVEIVNKIAESGRRVICAGLDMDFRGKPFGPIPELMAIAEFVDKIQAICVVCGNPATRTQRLINGKPAFYDDPVVLIGAMESYEARCRKCHVVPQKKEVMAGDPLEHHHHHH	soluble
MGSDKIHHHHHHLVGSGGTGAPPPRSSPMTTLYVTQPGSVVRSEGGSLTVWVETEADDPGPNDSPVRRKRLASVEPHRLESLVLLGFTTITANAMRLCMANKIAVSLLDGGGGLAARVVPPEARSADLRLHQYALHLDPPERLIRARAVVTAKLRNAAAVLRGIRSNQASSAALASAITQTEASAEAAAAAVSAESLLGIEGNGAHQYFAGLRTAFVGGIPFLGRAQRPPPDPANSLLSFGYVLLGNRLTGLLEARGVDPCLGFFHDLRPGRPSLALDLLEELRHPVVDRLALRICNLRKIQPQHFEPDAERPGGVKLTVDGRKIFLEEWEGHLARPLREPGVAAEHRLDVHRLLQRQVDRLVSDLRGGEPYRPFRFGTSRPG	not soluble
MGSDKIHHHHHHMGVVETAEWLHLYYGRPEKLCEKFTKYIPLPKERLYRFLISKGMYRPVMRGEREIKELEKKEVWKELRAEYEKLKDWLKGPDVPVFILLSDSYNRTVQEEYNGRAGLSMRHVIFLFVCGRNSVEELKVLLAHEYHHICRLHQIETKETEYTLLDTMIMEGLAEQAVTERYSEKNNAPWTTYLSKEEAIYYWKNVVHERISIKRGTREHDILLNGFHSYPKMLGYALGFHIVKDCVTLEGEDTLSLLPIDAKEILNKANTFHI	not soluble
MSADEPSPEDEKYLESLRDLLKISQEFDASNAKQNDEPEKTAVEVESAETRTDESEKSIDIPREQQLLPSERVEPLKSMVEPEYVKKVIRQMDTMTAEQLKQALMKIKVSTGGNKKTLRKRVAQYYRKENALLNRKMEPNADKTARFFDYLIAIDFECTCVEIIYDYPHEIIELPAVLIDVREMKIISEFRTYVRPVRNPKLSEFCMQFTKIAQETVDAAPYFREALQRLYTWMRKFNLGQKNSRFAFVTDGPHDMWKFMQFQCLLSNIRMPHMFRSFINIKKTFKEKFNGLIKGNGKSGIENMLERLDLSFVGNKHSGLDDATNIAAIAIQMMKLKIELRINQKCSYKENQRSAARKDEERELEDAANVDLTSVDISRRDFQLWMRRLPLKLSSVTRREFINEEYLDCDSCDDLTDDKVKHLHSCDIYEIFDEKTSASFTDSKCLIC	soluble
MSEGITDIEESQIQTNYDKVVYKFDDMELDENLLRGVFGYGFEEPSAIQQRAIMPIIEGHDVLAQAQSGTGKTGTFSIAALQRIDTSVKAPQALMLAPTRELALQIQKVVMALAFHMDIKVHACIGGTSFVEDAEGLRDAQIVVGTPGRVFDNIQRRRFRTDKIKMFILDEADEMLSSGFKEQIYQIFTLLPPTTQVVLLSATMPNDVLEVTTKFMRNPVRILVKKDELTLEGIKQFYVNVEEEEYKYECLTDLYDSISVTQAVIFCNTRRKVEELTTKLRNDKFTVSAIYSDLPQQERDTIMKEFRSGSSRILISTDLLARGIDVQQVSLVINYDLPANKENYIHRIGRGGRFGRKGVAINFVTNEDVGAMRELEKFYSTQIEELPSDIATLLN	soluble
MKPHFRNTVERMYRDTFSYNFYNRPILSRRNTVWLCYEVKTKGPSRPPLDAKIFRGQVYSELKYHPEMRFFHWFSKWRKLHRDQEYEVTWYISWSPCTKCTRDMATFLAEDPKVTLTIFVARLYYFWDPDYQEALRSLCQKRDGPRATMKIMNYDEFQHCWSKFVYSQRELFEPWNNLPKYYILLHIMLGEILRHSMDPPTFTFNFNNEPWVRGRHETYLCYEVERMHNDTWVLLNQRRGFLCNQAPHKHGFLEGRHAELCFLDVIPFWKLDLDQDYRVTCFTSWSPCFSCAQEMAKFISKNKHVSLCIFTARIYDDQGRCQEGLRTLAEAGAKISIMTYSEFKHCWDTFVDHQGCPFQPWDGLDEHSQDLSGRLRAILQNQEN	soluble
MGSDKIHHHHHHEVPIGFDTDELSFDMSLVLLTGDMQTKASDPNYTYATTEELTIQNCHVAVFDKDGKRIYFKNFYSKDLGEMKTIGNLSGYELQLEGVRTFGKEDKKVSVLVVANANNANNSPFDNLTTYDGVDNSYTAKTIAKGPVTASLLVKIGKSETTLKYNQDNAPVTVSLIQLSAKIEYTGVYKKENGELLEGFSLTKVAGLNASSKITIFNTSAVENGAFSDLAYPTTKPVTFYTYEISDAFKEVILSVQSGVEPKEYPFPANKFIKGNYYRIKGLKSSTEIEWVLENVEDKEVTLDPFE	not soluble
SLDRLYAKAMKSKYTKLLLENFLLSPYEMTDPAIMAGLQKNVYPKYDELKTLRGLEGVKKHLSYVREKQEPYSKGNIAKYLKKAIEQYLPTVKRQDID	soluble
MNLVALAQLILFVLRNLNLKPRKHKPEEIALAIAAYVMGVQITKLNIPPSTLYYYTRKLGVKRRKDVRPRCPSCNSDRVIKNGSSRGKSKYKCKVCGRTFYGTASHRMSREQRERILREYTNRMSLRGISKVEGRPLTTVYSSVKRAALKAYVDLSILQAQLKAFRSKFAVLDESWTYVRVRRGPRRQNLWIWNALIDGVPFFVTGDRDYNTFRLLWLSLPKCEVHYTDDYPIYQVLYHHVVGKKYTHTVESYNSFCRSHLARLARDTKAVNRSRAMIDYSLALLNVMYPQVFTDEKTPLNLAYLSGVQYIRDHLILEHHHHHH	soluble
MGSDKIHHHHHHMTKAKYQQIEEILRRQITNGHYQEGDLIPKEFDLAEKYQVSRPTIRHAVQDLVNQGYLERRKHVGTIVKQTKIGQEFTHVLQSYNSEMSQKGLIAQTQVLFFKKEKASAEVAKALDLTENAPVYKLTRLRSADGNPIVLVTTYLPASKLSDFEKIDFTQQSLYQELEKRSLPIVHVKRKLEVKSADEMTANLLNIEEKVPIFYFHTYGYTKGEVPLEYSIAMYRGDENYFVIDLKR	not soluble
MAHHHHHHMRVALIFGITGQDGSYLSELLLEKNYHVHGVIRRCSSFNTKRIDHIFDKLILHYGDLLDSSNICSLICEIKPNEIYNLAAQSHVKVSFEMPEYTTEATALGTLRILEGIRISKVKNIKFYNASTSELFGKVQCPIQNENTPFYPVSPYAIAKLYAHYITINYRESYNMFCINGILFNHESPRRGETFVTRKITRGIAKIQKKLETSIILGNIDTYRDWGHAKDYVYAMYLMLQQNEADDFVICSNEQHSVREFCEISFSFVNIHIKWIGKGIQEIGVDQNNNVLIKKHEKYFRNCEVNTLLGDCSKAKNILKWEPTYTFTQLVYEMLKCDMQDYNLSMDDYDTCMKKYDTYKMGKKQ	not soluble
MIRVIEKGDKVSLPFSRGILTRSITSVGIDVDLAYSIAIEVQEELVKKGKTIVTKDEIRKLTYQKLIEKGFKEEAKRYIFWRRFRKMKVPLIILLGGPTGVGKSTIATELAFRLGIRSVIGTDSIREVLRKIITPELLPTIHTSTFLAWKELKGTVTDSPIVAGFESQVSAVTVGINAIIERAVREGLNAIIEGIHVVPGFVKVEGEMTFMYMLIARSREDLEARFYERTRYSKRPADYYISHLDEILEIQDYLIRRAKKFNVPVIENVELEETVSKIMEDIMQKTIEIMKGKGLDLLEEP	soluble
AIATGVYADAVLVSVTVGDTVTLHTAGVKNLQPADVKWYFNDIRIAQLDGDLRFNCTDIQCNDRTEIFIDRLRLDRKTGALTIVNITNTHSGVYQLVVIGGGGTIFNVTVHDDPATHYNQVKKNQGESVTFNPGVRRDLIVVLKCLLNNTLIAEISVNQSQICADVQCKERFTDRLKLDNESASLTITNTNITDSGNYTSVILISSDRRFSITREKRFSLTVTSLSSSQPSGGAIAGIVVMLLLLL	soluble

— the DeepSol protein solubility set
